Legend:
Assay in all cases: SPR
[1] = molecular target: non-glycosylated MUC1 TRD (2) (UniProt P15941)
[2] = molecular target: MUC1 TRD-Tn (3) (UniProt P15941, Tn antigen (GalNAcα) on the Thr of the Asp-Thr-Arg-Pro moiety)
[3] = molecular target: MUC1-ST (4) (UniProt P15941, ST antigen (Neu5Acα2,3Galβ1,3GalNAcα) on the Thr of the Asp-Thr-Arg-Pro moiety)
Sequence of MUC1-ST (4) (P15941 whole entry, looked up): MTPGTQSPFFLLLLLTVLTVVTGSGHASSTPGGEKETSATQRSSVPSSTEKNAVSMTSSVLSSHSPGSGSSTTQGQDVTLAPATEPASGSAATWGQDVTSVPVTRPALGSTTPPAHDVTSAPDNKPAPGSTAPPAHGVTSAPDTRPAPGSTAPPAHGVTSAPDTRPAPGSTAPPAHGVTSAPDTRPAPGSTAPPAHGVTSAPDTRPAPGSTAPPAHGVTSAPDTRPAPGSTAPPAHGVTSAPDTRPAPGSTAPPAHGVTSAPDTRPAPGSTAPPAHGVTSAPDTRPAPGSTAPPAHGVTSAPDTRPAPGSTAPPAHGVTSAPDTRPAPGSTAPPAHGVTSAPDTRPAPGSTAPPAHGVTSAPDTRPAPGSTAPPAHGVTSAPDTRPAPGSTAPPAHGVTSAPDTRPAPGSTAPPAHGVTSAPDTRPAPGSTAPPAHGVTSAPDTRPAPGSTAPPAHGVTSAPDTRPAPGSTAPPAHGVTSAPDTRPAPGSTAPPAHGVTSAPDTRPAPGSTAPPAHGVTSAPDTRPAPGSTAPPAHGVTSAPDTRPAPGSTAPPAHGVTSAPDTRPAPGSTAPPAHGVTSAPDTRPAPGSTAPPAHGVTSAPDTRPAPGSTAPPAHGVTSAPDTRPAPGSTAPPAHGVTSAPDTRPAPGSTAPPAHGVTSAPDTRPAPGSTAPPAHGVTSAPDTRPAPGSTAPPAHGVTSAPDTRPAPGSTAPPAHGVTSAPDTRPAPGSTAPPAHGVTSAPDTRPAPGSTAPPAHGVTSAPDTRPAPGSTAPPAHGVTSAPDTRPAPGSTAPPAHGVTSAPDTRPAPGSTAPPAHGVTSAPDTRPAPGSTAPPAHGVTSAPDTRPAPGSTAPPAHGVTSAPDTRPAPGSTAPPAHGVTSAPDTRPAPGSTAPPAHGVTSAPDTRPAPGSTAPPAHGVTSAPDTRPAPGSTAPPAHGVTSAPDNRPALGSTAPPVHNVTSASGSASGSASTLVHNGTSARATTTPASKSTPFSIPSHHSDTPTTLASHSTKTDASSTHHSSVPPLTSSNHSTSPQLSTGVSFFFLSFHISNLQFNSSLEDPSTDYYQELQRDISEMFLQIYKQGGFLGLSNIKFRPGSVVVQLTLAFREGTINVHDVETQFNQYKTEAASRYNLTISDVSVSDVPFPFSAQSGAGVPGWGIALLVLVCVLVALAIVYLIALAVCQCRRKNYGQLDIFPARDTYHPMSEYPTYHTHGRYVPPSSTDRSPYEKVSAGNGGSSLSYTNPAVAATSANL

Sequence of non-glycosylated MUC1 TRD (2) (P15941 whole entry, looked up): as above
Sequence of MUC1 TRD-Tn (3) (P15941 whole entry, looked up): as above

- Kd [1]: 10.8 µM
- koff [1]: 0.00225 s⁻¹
- koff [2]: 0.00144 s⁻¹
- koff [3]: 0.000456 s⁻¹
B1: SN-131 Fab (Fab, V domains shown)
VH: QVQLQQSGAELARPGASVKLSCKASGYTFTNYGLSWVKQRTGQGLEWIGENHPGSGIIYHNEKFRGKATLTADKSSSTAYVQLSSLTSEDSAVYFCARSSGTRGFAYWGQGTLVTVSA
VL: DVLMTQTPLSLPVSLGDQASISCRSSQSIVHSNGNTYLEWYLQKPGQSPKLLIYKVSNRFSGVPDRFSGSGSGTDFTLKISRVEAEDLGVYYCFQGSHGPWTFGGGTKLEIK
